Data from patent US20160222130A1 (Astellas, published 2016).

Tests used:
Human Tie2 (1-452)A4-Fc = molecular target: T1, Human Tie2 (1-452)A4-Fc (human, UniProt Q02763 23-452); assay: ELISA; Tie2-Fc coated at 1 ug/mL; signal at 100 ng/mL antibody vs convergence value on the parent
T1 construct: range 1-452
Experimental: (§1) The next day, the immobilized solution was removed, and the plate was washed with a TBS-T solution, and incubated for 60 minutes by the addition of 50 μL of a Blocker™ Casein in TBS (Thermo Fisher Scientific Inc., 37532) to perform blocking. The resultant was washed with a TBS-T solution, and TIE-1-Igγ1-LALA, diluted with 0.05% Tween 20 (Nacalai Tesque Inc., 28353-85)—containing Blocker™ Casein in TBS from 0.03 ng/mL to 100 ng/mL through eight steps, was added thereto in the amount of 20 μL per well. The resultant was incubated at room temperature for 90 minutes and then washed with a TBS-T solution three times, and 20 μL of a biotin-labeled anti-human kappa light chain antibody, which had been diluted to 0.1 μg/mL with 0.05% Tween 20-containing Blocker™ Casein in TBS, was added thereto. The resultant was incubated at room temperature for 60 minutes and then washed with a TBS-T solution three times, and 20 μL of alkaline phosphatase-labeled streptavidin, which had been diluted to 0.1 μg/mL with 0.05% Tween 20-containing Blocker™ Casein in TBS, was added thereto. The resultant was incubated at room temperature for 60 minutes and then washed with a TBS-T solution three times, and 50 μL of Chemiluminescent Ultra Sensitive AP Microwell and/or Membrane Substrate (450 nm), which had been 5-fold diluted with 1 mM MgCl₂-containing 20 mM TBS (pH 9.8) as a substrate, was added thereto. The resultant was incubated at room temperature under light-shielding for 40 minutes, and then luminescent intensity thereof was measured with an EnVision™ multi-label counter. The EC₅₀ value of TIE-1-Igγ1-LALA with respect to the human Tie2 (1-452)-Fc chimeric protein and 23 mutant proteins thereof were calculated. The relative value of luminescent intensity of 100 ng/mL TIE-1-Igγ1-LALA as maximum concentration point with respect to human Tie2 (1-452)-Fc chimeric protein and 23 mutant proteins thereof when the convergence value of the sigmoid curve of TIE-1-Igγ1-LALA binding to the human Tie2 (1-452)-Fc chimeric protein which was taken as 100% was calculated (Table 8 and Table 9). Further, the EC₅₀ value and the convergence value were calculated by Sigmoid-Emax model non-linear regression analysis.

Human Tie2 (1-452)A5-Fc = molecular target: T2, Human Tie2 (1-452)A5-Fc (human, UniProt Q02763 23-452); assay: as above
T2 construct: range 1-452
Experimental: as §1

Human Tie2 (1-452)r2-Fc = molecular target: T3, Human Tie2 (1-452)r2-Fc (human, UniProt Q02763 23-452); assay: ELISA; Tie2-Fc coated at 1 ug/mL, chemiluminescence
T3 construct: range 1-452
Experimental: as §1

Human Tie2 (1-452)g5-Fc = molecular target: T4, Human Tie2 (1-452)g5-Fc (human, UniProt Q02763 23-452); assay: as above
T4 construct: range 1-452
Experimental: as §1

Human Tie2 (1-452)r3-Fc = molecular target: T5, Human Tie2 (1-452)r3-Fc (human, UniProt Q02763 23-452); assay: as above
T5 construct: range 1-452
T5 sequence (Q02763 other isoform, or with tags, fused parts or gaps limits assumed, form in doubt): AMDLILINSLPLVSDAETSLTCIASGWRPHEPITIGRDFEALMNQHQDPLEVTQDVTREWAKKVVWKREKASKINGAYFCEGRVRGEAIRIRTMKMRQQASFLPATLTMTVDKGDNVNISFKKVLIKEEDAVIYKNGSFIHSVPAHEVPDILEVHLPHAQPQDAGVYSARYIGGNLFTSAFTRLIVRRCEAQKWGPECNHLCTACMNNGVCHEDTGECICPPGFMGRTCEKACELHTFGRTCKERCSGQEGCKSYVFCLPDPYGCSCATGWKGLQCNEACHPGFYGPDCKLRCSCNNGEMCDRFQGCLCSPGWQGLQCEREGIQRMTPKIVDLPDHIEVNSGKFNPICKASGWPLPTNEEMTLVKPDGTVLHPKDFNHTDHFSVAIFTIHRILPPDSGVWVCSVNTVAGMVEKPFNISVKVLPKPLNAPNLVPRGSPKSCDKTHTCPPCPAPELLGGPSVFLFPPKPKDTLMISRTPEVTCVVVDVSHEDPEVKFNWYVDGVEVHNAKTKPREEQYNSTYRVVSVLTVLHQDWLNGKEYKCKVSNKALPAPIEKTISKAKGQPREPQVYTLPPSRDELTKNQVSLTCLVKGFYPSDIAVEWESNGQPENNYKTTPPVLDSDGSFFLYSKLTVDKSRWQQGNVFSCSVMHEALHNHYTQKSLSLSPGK
Experimental: as §1

Human Tie2 (1-452)r1-Fc = molecular target: T6, Human Tie2 (1-452)r1-Fc (human, UniProt Q02763 23-452); assay: as above
T6 construct: range 1-452
Experimental: as §1

Human Tie2 (1-452)r7-Fc = molecular target: T7, Human Tie2 (1-452)r7-Fc (human, UniProt Q02763 23-452); assay: as above
T7 construct: range 1-452
Experimental: as §1

Human Tie2 (1-452)r6-Fc = molecular target: T8, Human Tie2 (1-452)r6-Fc (human, UniProt Q02763 23-452); assay: as above
T8 construct: range 1-452
Experimental: as §1

Human Tie2 (1-452)c1-Fc = molecular target: T9, Human Tie2 (1-452)c1-Fc (human, UniProt Q02763 23-452); assay: as above
T9 construct: range 1-452
Experimental: as §1

Human Tie2 (1-452)g2-Fc = molecular target: T10, Human Tie2 (1-452)g2-Fc (human, UniProt Q02763 23-452); assay: as above
T10 construct: range 1-452
Experimental: as §1

Human Tie2 (1-452)g3-Fc = molecular target: T11, Human Tie2 (1-452)g3-Fc (human, UniProt Q02763 23-452); assay: as above
T11 construct: range 1-452
Experimental: as §1

Human Tie2 (1-452)m3-Fc = molecular target: T12, Human Tie2 (1-452)m3-Fc (human, UniProt Q02763 23-452); assay: as above
T12 construct: range 1-452
T12 sequence (Q02763 other isoform, or with tags, fused parts or gaps limits assumed, form in doubt): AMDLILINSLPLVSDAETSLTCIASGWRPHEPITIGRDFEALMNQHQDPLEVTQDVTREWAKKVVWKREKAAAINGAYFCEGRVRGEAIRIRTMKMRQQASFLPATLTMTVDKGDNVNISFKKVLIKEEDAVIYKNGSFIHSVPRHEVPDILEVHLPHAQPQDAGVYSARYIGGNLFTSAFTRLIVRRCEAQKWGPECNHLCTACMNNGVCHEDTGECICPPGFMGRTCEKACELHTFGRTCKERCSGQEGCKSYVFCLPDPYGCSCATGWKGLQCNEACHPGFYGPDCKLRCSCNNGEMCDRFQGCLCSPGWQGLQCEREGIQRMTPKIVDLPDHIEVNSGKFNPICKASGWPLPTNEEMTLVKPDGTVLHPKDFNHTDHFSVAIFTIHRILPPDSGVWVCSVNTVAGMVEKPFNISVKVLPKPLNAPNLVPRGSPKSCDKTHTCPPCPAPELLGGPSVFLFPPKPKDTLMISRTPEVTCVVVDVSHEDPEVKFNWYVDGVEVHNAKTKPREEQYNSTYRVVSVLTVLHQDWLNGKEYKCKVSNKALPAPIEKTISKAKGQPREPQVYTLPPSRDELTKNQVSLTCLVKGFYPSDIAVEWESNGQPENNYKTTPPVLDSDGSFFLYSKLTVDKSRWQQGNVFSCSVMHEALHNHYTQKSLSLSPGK
Experimental: as §1

Human Tie2 (1-452)r4-Fc = molecular target: T13, Human Tie2 (1-452)r4-Fc (human, UniProt Q02763 23-452); assay: as above
T13 construct: range 1-452
Experimental: as §1

Human Tie2 (1-452)m1-Fc = molecular target: T14, Human Tie2 (1-452)m1-Fc (human, UniProt Q02763 23-452); assay: as above
T14 construct: range 1-452
Experimental: as §1

Human Tie2 (1-452)g4-Fc = molecular target: T15, Human Tie2 (1-452)g4-Fc (human, UniProt Q02763 23-452); assay: as above
T15 construct: range 1-452
T15 sequence (Q02763 other isoform, or with tags, fused parts or gaps limits assumed, form in doubt): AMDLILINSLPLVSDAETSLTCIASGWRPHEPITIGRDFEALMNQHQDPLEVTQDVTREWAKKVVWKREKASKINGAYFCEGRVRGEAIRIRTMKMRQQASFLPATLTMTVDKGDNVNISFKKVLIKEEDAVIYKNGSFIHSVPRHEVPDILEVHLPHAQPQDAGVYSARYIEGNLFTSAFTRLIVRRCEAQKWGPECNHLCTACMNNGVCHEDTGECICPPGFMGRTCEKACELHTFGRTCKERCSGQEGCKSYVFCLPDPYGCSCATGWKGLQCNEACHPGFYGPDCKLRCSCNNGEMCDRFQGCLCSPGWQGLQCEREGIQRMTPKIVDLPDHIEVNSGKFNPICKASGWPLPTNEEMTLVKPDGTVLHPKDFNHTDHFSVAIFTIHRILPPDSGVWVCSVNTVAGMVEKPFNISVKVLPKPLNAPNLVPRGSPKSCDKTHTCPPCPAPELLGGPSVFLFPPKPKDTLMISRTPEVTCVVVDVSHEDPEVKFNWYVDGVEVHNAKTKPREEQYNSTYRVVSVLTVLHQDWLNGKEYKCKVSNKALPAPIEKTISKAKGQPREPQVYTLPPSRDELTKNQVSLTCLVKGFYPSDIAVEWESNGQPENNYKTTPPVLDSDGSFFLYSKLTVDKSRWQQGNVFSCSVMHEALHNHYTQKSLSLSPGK
Experimental: as §1

Human Tie2 (1-452)y1-Fc = molecular target: T16, Human Tie2 (1-452)y1-Fc (human, UniProt Q02763 23-452); assay: as above
T16 construct: range 1-452
Experimental: as §1

[1] = molecular target: T17, human Tie2 (1-452)-Fc chimeric protein (human, UniProt Q02763 23-452); assay: as above
T17 construct: range 1-452; The stated range 1-452 begins at residue 1 of the precursor
T17 sequence (Q02763 other isoform, or with tags, fused parts or gaps mutant limits assumed, form in doubt): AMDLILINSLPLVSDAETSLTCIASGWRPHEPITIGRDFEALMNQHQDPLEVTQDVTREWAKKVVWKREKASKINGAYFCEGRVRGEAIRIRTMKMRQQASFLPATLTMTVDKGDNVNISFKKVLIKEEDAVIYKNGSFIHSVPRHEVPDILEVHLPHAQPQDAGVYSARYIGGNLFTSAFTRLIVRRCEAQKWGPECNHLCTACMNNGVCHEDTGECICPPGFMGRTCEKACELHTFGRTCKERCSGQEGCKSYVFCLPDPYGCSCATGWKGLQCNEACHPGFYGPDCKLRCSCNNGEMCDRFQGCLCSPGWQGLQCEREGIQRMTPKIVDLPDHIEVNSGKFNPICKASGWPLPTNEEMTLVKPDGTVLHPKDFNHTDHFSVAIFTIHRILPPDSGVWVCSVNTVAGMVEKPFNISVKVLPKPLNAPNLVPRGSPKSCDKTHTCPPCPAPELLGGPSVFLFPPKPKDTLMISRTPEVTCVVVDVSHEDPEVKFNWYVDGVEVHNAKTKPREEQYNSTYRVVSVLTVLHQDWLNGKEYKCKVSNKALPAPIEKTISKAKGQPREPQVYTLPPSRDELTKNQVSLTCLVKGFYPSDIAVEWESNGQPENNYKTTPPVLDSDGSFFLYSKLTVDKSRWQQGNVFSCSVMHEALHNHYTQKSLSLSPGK
Experimental: as §1

Human Tie2 (1-452)g6-Fc = molecular target: T18, Human Tie2 (1-452)g6-Fc (human, UniProt Q02763 23-452); assay: as above
T18 construct: range 1-452
Experimental: as §1

Human Tie2 (1-452)r5-Fc = molecular target: T19, Human Tie2 (1-452)r5-Fc (human, UniProt Q02763 23-452); assay: as above
T19 construct: range 1-452
T19 sequence (Q02763 other isoform, or with tags, fused parts or gaps limits assumed, form in doubt): as the sequence (Q02763 other isoform, or with tags, fused parts or gaps mutant limits assumed, form in doubt) above, with E147A counted along it
Experimental: as §1

Human Tie2 (1-452)g1-Fc = molecular target: T20, Human Tie2 (1-452)g1-Fc (human, UniProt Q02763 23-452); assay: as above
T20 construct: range 1-452
T20 sequence (Q02763 other isoform, or with tags, fused parts or gaps limits assumed, form in doubt): as the sequence (Q02763 other isoform, or with tags, fused parts or gaps mutant limits assumed, form in doubt) above, with I172A, N175A, L176A counted along it
Experimental: as §1

Relative value (%) of luminescent intensity (Human Tie2 (1-452)A4-Fc): 100%
Relative value (%) of luminescent intensity (Human Tie2 (1-452)A5-Fc): 98%
EC50 (Human Tie2 (1-452)r2-Fc): 0.9 ng/mL
EC50 (Human Tie2 (1-452)g5-Fc): 2.2 ng/mL
EC50 (Human Tie2 (1-452)r3-Fc): 1 ng/mL
EC50 (Human Tie2 (1-452)r1-Fc): 1.1 ng/mL
EC50 (Human Tie2 (1-452)r7-Fc): 1.1 ng/mL
EC50 (Human Tie2 (1-452)r6-Fc): 1 ng/mL
EC50 (Human Tie2 (1-452)c1-Fc): 1 ng/mL
EC50 (Human Tie2 (1-452)g2-Fc): 5.5 ng/mL
EC50 (Human Tie2 (1-452)g3-Fc): 1.1 ng/mL
EC50 (Human Tie2 (1-452)m3-Fc): 1 ng/mL
EC50 (Human Tie2 (1-452)r4-Fc): 1 ng/mL
EC50 (Human Tie2 (1-452)m1-Fc): 1 ng/mL
EC50 (Human Tie2 (1-452)g4-Fc): 18 ng/mL
EC50 (Human Tie2 (1-452)y1-Fc): 1 ng/mL
EC50 [1]: 1.1 ng/mL
EC50 (Human Tie2 (1-452)g6-Fc): 1.3 ng/mL
EC50 (Human Tie2 (1-452)r5-Fc): 1 ng/mL
EC50 (Human Tie2 (1-452)g1-Fc): 12.3 ng/mL
B1: TIE-1-Igγ1-LALA (antibody, human IgG1, kappa, L234A L235A)
heavy: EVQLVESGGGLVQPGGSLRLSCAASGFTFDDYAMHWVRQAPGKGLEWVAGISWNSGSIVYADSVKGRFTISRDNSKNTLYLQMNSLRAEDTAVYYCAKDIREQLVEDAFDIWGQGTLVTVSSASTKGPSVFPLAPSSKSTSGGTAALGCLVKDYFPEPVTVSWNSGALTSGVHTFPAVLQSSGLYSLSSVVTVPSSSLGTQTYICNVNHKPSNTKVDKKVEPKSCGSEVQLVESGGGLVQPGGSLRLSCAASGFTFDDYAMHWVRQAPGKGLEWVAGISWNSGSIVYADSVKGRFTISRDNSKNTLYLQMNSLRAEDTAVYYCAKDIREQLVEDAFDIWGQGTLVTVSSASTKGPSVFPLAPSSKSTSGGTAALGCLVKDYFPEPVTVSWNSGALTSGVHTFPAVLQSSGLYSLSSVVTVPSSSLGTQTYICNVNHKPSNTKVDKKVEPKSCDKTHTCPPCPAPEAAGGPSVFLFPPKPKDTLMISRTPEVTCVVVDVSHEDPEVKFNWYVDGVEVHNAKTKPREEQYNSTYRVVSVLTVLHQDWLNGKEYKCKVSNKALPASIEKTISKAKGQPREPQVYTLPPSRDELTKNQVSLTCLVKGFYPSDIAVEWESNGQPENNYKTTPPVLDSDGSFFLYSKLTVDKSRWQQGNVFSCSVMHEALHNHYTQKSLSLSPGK
light: DIQMTQSPSSLSASVGDRVTITCRSSQSLLHSHRYNYLDWYQQKPGKAPKLLIYLGSNRASGVPSRFSGSGSGTDFTLTISSVQPEDFATYYCMQTLQTPLTFGQGTKVEIKRTVAAPSVFIFPPSDEQLKSGTASVVCLLNNFYPREAKVQWKVDNALQSGNSQESVTEQDSKDSTYSLSSTLTLSKADYEKHKVYACEVTHQGLSSPVTKSFNRGEC
notes: Tandem tetravalent format: two heavy chains (VH-CH1-linker-VH-CH1-CH2-CH3) and four light chains; also called tetravalent anti-human Tie2 antibody with L234A, L235A and P331S
